In PMC8267817:

Target: T1, phosphorylated peptide CKATQA(p)SQEY corresponding to the C-terminal end of γ-H2AX (human)
T1 sequence (peptide, phosphoserine at S139 (7th letter of the printed peptide)): CKATQASQEY
Test: SPR; Biacore T200, 25 °C, HBS-P (10 mM HEPES pH 7.4, 150 mM NaCl, 0.05% P20); phosphopeptide immobilised by thiol coupling of its N-terminal cysteine; VHH injected 120 s; Kd from equilibrium response fitted to a 1:1 model; fractional occupancy at saturating amounts (C6 180 nM, C6B 80 nM)

- Kd: 11 nM
B1: C6 nanobody (purified, monovalent) (VHH)
VHH: DVQLVESGGGLVQAGDSLRLSCAASGLTFSRYAMGWFRQAPGNEREFVAVITASGRTTLYADSVKGRFTISRDNAKNTVALQMQSLKPEDTAVYYCAADYGTSRYTRRQSEYEYWGQGTQVTVSS
